The values below come from US20050277167A1 (published 2005).

The target of the assay is T1, chicken prolyl 3-hydroxylase 1 (chicken P3H1) (chicken, UniProt Q6JHU8 15-725).
T1 construct: Native protein from chick embryos (gelatin sepharose, then 1C10 antibody column); also called chick homologue of leprecan; 90 kDa protein
T1 sequence: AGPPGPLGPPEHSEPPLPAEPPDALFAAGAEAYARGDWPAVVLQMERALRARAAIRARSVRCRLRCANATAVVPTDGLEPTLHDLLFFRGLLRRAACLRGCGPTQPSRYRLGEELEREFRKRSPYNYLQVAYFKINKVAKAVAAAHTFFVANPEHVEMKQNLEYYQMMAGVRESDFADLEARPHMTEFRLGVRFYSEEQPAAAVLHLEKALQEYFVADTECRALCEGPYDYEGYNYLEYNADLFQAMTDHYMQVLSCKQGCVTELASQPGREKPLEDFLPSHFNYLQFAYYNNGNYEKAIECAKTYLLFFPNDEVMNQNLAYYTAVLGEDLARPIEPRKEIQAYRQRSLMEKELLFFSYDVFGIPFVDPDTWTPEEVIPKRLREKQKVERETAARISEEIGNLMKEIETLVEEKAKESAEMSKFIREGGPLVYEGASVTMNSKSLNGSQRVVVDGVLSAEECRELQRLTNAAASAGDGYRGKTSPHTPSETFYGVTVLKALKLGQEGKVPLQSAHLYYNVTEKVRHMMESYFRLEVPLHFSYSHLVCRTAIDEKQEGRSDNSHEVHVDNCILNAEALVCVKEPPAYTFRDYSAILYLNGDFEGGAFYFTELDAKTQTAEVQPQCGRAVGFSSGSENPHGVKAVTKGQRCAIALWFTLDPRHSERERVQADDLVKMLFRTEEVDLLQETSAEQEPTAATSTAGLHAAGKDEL
Description: co-retention on 1C10 (anti-P3H1) column, elution at pH 6 and 0.5 M NaCl, SDS-PAGE and sequencing. The method, then: The antibody was produced and selected by standard methods and specificity of the antibody was determined using immunoblotting and ELISA techniques. The antibody recognizes both nonreduced and reduced (at much lower affinity) P3H1 and was used to create an affinity column for the purpose of protein purification. Briefly, a 2 ml column was created using approximately 10 mg of the 1C10 antibody and AminoLink® plus coupling gel (Pierce) following the manufacturer's instructions. Pooled and dialyzed peak fractions from the gelatin sepharose elution were then loaded onto the antibody column and the flow through was collected and concentrated for further purification of prolyl 4-hydroxylase and PDI by sieve chromatography on superose 12 resin (Pharmacia). The 1C10 antibody column was washed with 5 volumes of PBS (procedure described in Current Protocols in Protein Science Online), and then washed with 5 volumes of wash B buffer containing 50 mM sodium phosphate, pH 6.0, 0.5 M NaCl, and 0.1% Triton X-100 to elute associated proteins. […] Sequences of proteins eluted with the wash B buffer were determined by Edman degradation in a protein sequencer (Applied Biosystems Procise Sequencer). […]

B1: cyclophilin B (CYPB) (enzyme)
chain: not shown
notes: Native protein from chick embryos, 21 kDa on SDS-PAGE; also called 21 kDa protein
For B1, the binding result is on record as “binds”.
